Key:
[1] = system: SNX27_PDZ; assay: AP-MS control pull-down on leftover resin, SNX27_PDZ bait, total Jurkat extracts; assay type: binding, human; settings: Jurkat, series 1; leftover resin; n = 6
Procedure: Leftover beads from nHU-MS experiments were washed three times immediately after the separation of the supernatant [10 resin volume in buffer containing 50 mM tris (pH 8.5), 150 mM NaCl, 1% Triton X-100, 10× cOmplete EDTA-free protease inhibitor cocktail, 2 mM EDTA, and 1 mM TCEP]. Then, the beads were washed two times [10 resin volume buffer containing 50 mM tris (pH 8.5), 150 mM NaCl, and 1 mM TCEP]. Last, captured protein was eluted from the resin in two steps, and the eluted fractions were pooled. For each elution, the beads were incubated for 30 min with three resin volume buffer containing 20 mM tris (pH 8.5), 100 mM NaCl, 500 μM TCEP, and 8 M urea. Between each step, the beads were separated by mild centrifugation, and the supernatant was removed by gentle pipetting.
The nHU samples were precipitated with trichloroacetic acid (TCA) 20% overnight at 4°C and centrifuged at 14,000 rpm for 10 min at 4°C. The protein pellets were washed twice with 1 ml of cold acetone and air-dried. The protein extracts were solubilized in 8 M urea, reduced with 5 mM TCEP for 30 min, and alkylated with 10 mM iodoacetamide for 30 min in the dark. Double digestion was performed at 37°C with 500 ng of endoproteinase Lys-C (Wako, Richmond, USA) for 4 hours, followed by fourfold dilution and an overnight digestion with 500 ng of trypsin (Promega, Charbonnieres les Bains, France). Peptide mixtures were then desalted on a C18 spin-column and dried on a speed vacuum.
Samples were analyzed using an Ultimate 3000 nano-RSLC coupled in line via a nano-electrospray ionization source, with an LTQ-Orbitrap ELITE mass spectrometer (Thermo Fisher Scientific, San Jose, CA) or with the Orbitrap Exploris 480 mass spectrometer (Thermo Fisher Scientific, Bremen, Germany) equipped with a high field asymmetric ion mobility spectrometry (FAIMS) module. Peptide mixtures were injected in 0.1% trifluoroacetic acid on a C18 Acclaim PepMap100 trap column [75 μm inner diameter (ID) × 2 cm, 3 μm, 100 Å, Thermo Fisher Scientific] for 3 min at 5 μl/min with 2% acetonitrile (ACN) and 0.1% formic acid (FA) in H2O and then separated on a C18 Acclaim PepMap100 nano-column (75 μm ID × 50 cm, 2.6 μm, 150 Å, Thermo Fisher Scientific) at 300 nl/min and 40°C with a 90-min linear gradient from 5 to 30% buffer B (A: 0.1% FA in H2O/B: 80% ACN, 0.1% FA in H2O) and regeneration at 5% B. Spray voltage was set to 2.1 kV and heated capillary temperature was set to 280°C.
For the Orbitrap Elite, the mass spectrometer was operated in positive ionization mode in data-dependent mode with survey scans from mass/charge ratio (m/z) 350 to 1500 acquired in the Orbitrap at a resolution of 120,000 at m/z 400. The 20 most intense peaks from survey scans were selected for further fragmentation in the linear ion trap with an isolation window of 2.0 Da and were fragmented by collision-induced dissociation (CID) with a normalized collision energy of 35% (TOP 20 CID method). Unassigned and single-charged states were excluded from fragmentation. The ion target value for the survey scans (in the Orbitrap) and the MS2 mode (in the linear ion trap) were set to 1E6 and 5E3, respectively, and the maximum injection time was set to 100 ms for both scan modes. Dynamic exclusion was set to 20 s after one repeat count with mass width at ±10 parts per million (ppm).
Proteins were identified by database search using SequestHT (Thermo Fisher Scientific) with Proteome Discoverer 2.4 software (PD2.4, Thermo Fisher Scientific) on the human FASTA database downloaded from UniProt (reviewed, release 2021_06_03, 20380 entries, https://uniprot.org/, complemented with sequences of likely contaminants, such as MBP, streptavidin, or trypsin). Precursor and fragment mass tolerances were set at 7 ppm and 0.6 Da, respectively, and up to two missed cleavages were allowed. […]

[2] = system: SNX27_PDZ; assay: nHU-MS, SNX27_PDZ bait, total Jurkat extracts, series 1; assay type: binding, human; settings: Jurkat, series 1; for BI_HU / FC_HU (log2 fold change) / Ratio_HU: n = 6; for pKapp_significant_binders_HU: apparent, Eq. 2, significant binders (1 σ, P < 0.05)
Procedure: The empty His6-AviTag-MBP-TEV vector was used to produce biotinylated MBP for control experiments. Proteins were coexpressed with BirA biotin ligase (PET21a-BirA, Addgene, no. 20857) in Escherichia coli BL21(DE3) cells. At isopropyl-β-D-thiogalactopyranoside (IPTG) induction (1 mM IPTG at 18°C overnight), 50 μM biotin was added to the media. Harvested cells were lysed in a buffer containing 50 mM tris (pH 7.5), 150 to 300 mM NaCl, 50 μM biotin, 2 mM β-mercaptoethanol, cOmplete EDTA-free protease inhibitor cocktail (Roche, Basel, Switzerland), 1% Triton X-100, and trace amount of deoxyribonuclease, ribonuclease, and lysozyme. Lysates were frozen at −20°C before further purification steps. Lysates were sonicated and centrifuged for clarification. Expressed proteins were captured on in-house prepacked Ni-IDA (Protino Ni-IDA Resin, Macherey-Nagel, Duren, Germany) columns and were washed with at least 10 column volumes of cold wash buffer [50 mM tris (pH 7.5), 150 mM NaCl, and 2 mM β-mercaptoethanol] before elution with 250 mM imidazole. The Ni elution was collected directly on a preequilibrated amylose column (amylose high flow resin, New England Biolabs, Ipswich, MA). Amylose column was washed with 5 column volumes of cold wash buffer before fractionated elution in a buffer containing 25 mM Hepes (pH 7.5), 150 mM NaCl, 1 mM TCEP, 10% glycerol, 5 mM maltose, and cOmplete EDTA-free protease inhibitor cocktail. The concentration of proteins was determined by their ultraviolet absorption at 280 nm before aliquots were snap-frozen in liquid nitrogen and stored at −80°C.
For saturating streptavidin resin with biotinylated peptides or biotin, 50 μl of streptavidin resin was mixed with biotin or peptide at 40 to 60 μM concentration in 6 to 6.5 resin volume for 60 min. To saturate streptavidin resin with biotinylated proteins, 50 μl of streptavidin resin (Streptavidin Sepharose High Performance, Cytiva) was mixed with biotinylated MBP or MBP-PDZ at 40 to 50 μM concentration in 20× resin volume for 60 min. After saturation, resins were washed a single time [10 resin volume, holdup buffer: 50 mM tris (pH 7.5), 300 mM NaCl, and 1 mM TCEP, 0.22-μm filtered] and were depleted with biotin (10 resin volume, 10 min, holdup buffer supplemented with 100 μM biotin). Last, resins were washed two times (10 resin volume, holdup buffer).
For single-point nHU experiments carried out at ~10 μM bait concentration, 50 μl of saturated streptavidin resin was mixed with 200 μl of cell lysate (2 mg/ml). Titration experiments were carried out by mixing control and bait-saturated resin and keeping the total resin volume constant; e.g., ~5 μM bait concentration can be achieved by mixing 25 μl of bait-saturated streptavidin resin with 25 μl of control resin and 200 μl of cell lysate (2 mg/ml). Control and bait-saturated resins were prepared in larger amounts, and a serial dilution was prepared with these presaturated resins to achieve different resin ratios.
Unless specified elswhere, the nHU mixture was incubated at 4°C for 2 hours. After the incubation ended, the resin was separated from the supernatant by a brief centrifugation (15 s, 2000 g). Then, half of the supernatant was removed by pipetting without any delay to avoid any resin contamination; e.g., 100 μl of supernatant is collected if 200 μl of cell lysate was used as analyte. Alternatively, the supernatant can be centrifuged an additional time to clarify it further, removing any possible resin contamination. In principle, the separation of the supernatant should be as fast as possible since any delay can perturb the equilibrium. […] Alternatively, the resin can be separated from the supernatant using filter plates (e.g., various products of Millipore, Burlington, MA) or spin columns (e.g., Pierce spin cups—cellulose acetate filter from Thermo Fisher Scientific, Waltham, MA) to achieve faster separation. […]

B1: ARHGEF6: Rho guanine nucleotide exchange factor 6 (protein, UniProt Q15052 1-776, looked up)
Rho guanine nucleotide …: MNPEEQIVTWLISLGVLESPKKTICDPEEFLKSSLKNGVVLCKLINRLMPGSVEKFCLDPQTEADCINNINDFLKGCATLQVEIFDPDDLYSGVNFSKVLSTLLAVNKATEDQLSERPCGRSSSLSAANTSQTNPQGAVSSTVSGLQRQSKTVEMTENGSHQLIVKARFNFKQTNEDELSVCKGDIIYVTRVEEGGWWEGTLNGRTGWFPSNYVREIKSSERPLSPKAVKGFETAPLTKNYYTVVLQNILDTEKEYAKELQSLLVTYLRPLQSNNNLSTVEVTSLLGNFEEVCTFQQTLCQALEECSKFPENQHKVGGCLLSLMPHFKSMYLAYCANHPSAVNVLTQHSDELEQFMENQGASSPGILILTTNLSKPFMRLEKYVTLLQELERHMEDTHPDHQDILKAIVAFKTLMGQCQDLRKRKQLELQILSEPIQAWEGEDIKNLGNVIFMSQVMVQYGACEEKEERYLMLFSNVLIMLSASPRMSGFIYQGKIPIAGTVVTRLDEIEGNDCTFEITGNTVERIVVHCNNNQDFQEWLEQLNRLIRGPASCSSLSKTSSSSCSAHSSFSSTGQPRGPLEPPQIIKPWSLSCLRPAPPLRPSAALGYKERMSYILKESSKSPKTMKKFLHKRKTERKPSEEEYVIRKSTAALEEDAQILKVIEAYCTSANFQQGHGSSTRKDSIPQVLLPEEEKLIIEETRSNGQTIMEEKSLVDTVYALKDEVRELKQENKRMKQCLEEELKSRRDLEKLVRRLLKQTDECIRGESSSKTSILP
[1]
  FC_AP (log2 fold change): 5.099
  Ratio_AP: 34.2811
[2]
  BI_HU: 0.3284
  FC_HU (log2 fold change): -0.5743
  Ratio_HU: 0.6716
  pKapp_significant_binders_HU: 4.691

B2: Microtubule-associated protein 4: full-length endogenous prey, gene MAP4 (protein, UniProt P27816 1-1152, looked up)
chain: MADLSLADALTEPSPDIEGEIKRDFIATLEAEAFDDVVGETVGKTDYIPLLDVDEKTGNSESKKKPCSETSQIEDTPSSKPTLLANGGHGVEGSDTTGSPTEFLEEKMAYQEYPNSQNWPEDTNFCFQPEQVVDPIQTDPFKMYHDDDLADLVFPSSATADTSIFAGQNDPLKDSYGMSPCNTAVVPQGWSVEALNSPHSESFVSPEAVAEPPQPTAVPLELAKEIEMASEERPPAQALEIMMGLKTTDMAPSKETEMALAKDMALATKTEVALAKDMESPTKLDVTLAKDMQPSMESDMALVKDMELPTEKEVALVKDVRWPTETDVSSAKNVVLPTETEVAPAKDVTLLKETERASPIKMDLAPSKDMGPPKENKKETERASPIKMDLAPSKDMGPPKENKIVPAKDLVLLSEIEVAQANDIISSTEISSAEKVALSSETEVALARDMTLPPETNVILTKDKALPLEAEVAPVKDMAQLPETEIAPAKDVAPSTVKEVGLLKDMSPLSETEMALGKDVTPPPETEVVLIKNVCLPPEMEVALTEDQVPALKTEAPLAKDGVLTLANNVTPAKDVPPLSETEATPVPIKDMEIAQTQKGISEDSHLESLQDVGQSAAPTFMISPETVTGTGKKCSLPAEEDSVLEKLGERKPCNSQPSELSSETSGIARPEEGRPVVSGTGNDITTPPNKELPPSPEKKTKPLATTQPAKTSTSKAKTQPTSLPKQPAPTTIGGLNKKPMSLASGLVPAAPPKRPAVASARPSILPSKDVKPKPIADAKAPEKRASPSKPASAPASRSGSKSTQTVAKTTTAAAVASTGPSSRSPSTLLPKKPTAIKTEGKPAEVKKMTAKSVPADLSRPKSTSTSSMKKTTTLSGTAPAAGVVPSRVKATPMPSRPSTTPFIDKKPTSAKPSSTTPRLSRLATNTSAPDLKNVRSKVGSTENIKHQPGGGRAKVEKKTEAAATTRKPESNAVTKTAGPIASAQKQPAGKVQIVSKKVSYSHIQSKCGSKDNIKHVPGGGNVQIQNKKVDISKVSSKCGSKANIKHKPGGGDVKIESQKLNFKEKAQAKVGSLDNVGHLPAGGAVKTEGGGSEAPLCPGPPAGEEPAISEAAPEAGAPTSASGLNGHPTLSGGGDQREAQTLDSQIQETSI
modifications: full-length
notes: full-length endogenous prey, gene MAP4
[1]
  FC_AP (log2 fold change): 7.799
  Ratio_AP: 222.732
[2]
  BI_HU: 0.2772
  FC_HU (log2 fold change): -0.4683
  Ratio_HU: 0.7228
  pKapp_significant_binders_HU: 4.5849

B3: PTPRCAP: Protein tyrosine phosphatase receptor type C-associated protein (protein, UniProt Q14761 1-206, looked up)
Protein tyrosine phosphatase …: MALPCTLGLGMLLALPGALGSGGSAEDSVGSSSVTVVLLLLLLLLLATGLALAWRRLSRDSGGYYHPARLGAALWGRTRRLLWASPPGRWLQARAELGSTDNDLERQEDEQDTDYDHVADGGLQADPGEGEQQCGEASSPEQVPVRAEEARDSDTEGDLVLGSPGPASAGGSAEALLSDLHAFAGSAAWDDSARAAGGQGLHVTAL
[1]
  FC_AP (log2 fold change): 0.5179
  Ratio_AP: 1.432
[2]
  BI_HU: 0.3458
  FC_HU (log2 fold change): -0.6123
  Ratio_HU: 0.6542
  pKapp_significant_binders_HU: 4.725

Source: publication PMC9770967, “Native holdup (nHU) to measure binding affinities from cell extracts” (Science Advances, 2022)
